Paper PMC9638941, “Molecular basis of dual anti-CRISPR and auto-regulatory functions of AcrIF24” (Nucleic Acids Research, 2022)

T1: AcrIF24 Y128K/Y217W (Pseudomonas aeruginosa prophage, UniProt A0AA82WNY5 1-228, Y128K;Y217W)
T1 sequence: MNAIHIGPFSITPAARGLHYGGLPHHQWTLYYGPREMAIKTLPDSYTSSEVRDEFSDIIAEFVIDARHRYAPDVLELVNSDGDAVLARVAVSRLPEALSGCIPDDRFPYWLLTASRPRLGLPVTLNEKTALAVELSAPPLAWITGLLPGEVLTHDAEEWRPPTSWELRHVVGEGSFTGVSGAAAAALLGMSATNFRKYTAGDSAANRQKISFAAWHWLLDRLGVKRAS

T2: AcrIF24 S45Y (Pseudomonas aeruginosa prophage, UniProt A0AA82WNY5 1-228, S45Y)
T2 sequence: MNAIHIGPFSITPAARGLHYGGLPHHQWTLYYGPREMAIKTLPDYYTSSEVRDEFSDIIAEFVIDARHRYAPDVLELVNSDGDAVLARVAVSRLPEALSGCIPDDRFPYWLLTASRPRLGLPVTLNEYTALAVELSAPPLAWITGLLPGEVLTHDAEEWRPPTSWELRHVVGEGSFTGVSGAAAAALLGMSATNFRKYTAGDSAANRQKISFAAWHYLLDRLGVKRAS

T3: AcrIF24 K197Y (Pseudomonas aeruginosa prophage, UniProt A0AA82WNY5 1-228, K197Y)
T3 sequence: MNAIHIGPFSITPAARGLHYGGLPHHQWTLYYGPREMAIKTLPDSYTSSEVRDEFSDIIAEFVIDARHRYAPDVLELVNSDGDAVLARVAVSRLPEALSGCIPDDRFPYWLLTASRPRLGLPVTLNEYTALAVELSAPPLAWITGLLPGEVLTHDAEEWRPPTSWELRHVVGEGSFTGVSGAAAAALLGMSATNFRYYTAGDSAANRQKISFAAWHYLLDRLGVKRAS

T4: AcrIF24 R207W (Pseudomonas aeruginosa prophage, UniProt A0AA82WNY5 1-228, R207W)
T4 sequence: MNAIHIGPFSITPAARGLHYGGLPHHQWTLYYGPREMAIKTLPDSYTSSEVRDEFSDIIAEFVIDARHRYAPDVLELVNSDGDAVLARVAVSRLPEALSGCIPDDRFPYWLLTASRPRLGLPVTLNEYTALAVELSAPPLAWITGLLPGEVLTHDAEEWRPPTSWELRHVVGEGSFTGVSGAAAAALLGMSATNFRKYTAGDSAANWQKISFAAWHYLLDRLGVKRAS

T5: AcrIF24 R16W (Pseudomonas aeruginosa prophage, UniProt A0AA82WNY5 1-228, R16W)
T5 sequence: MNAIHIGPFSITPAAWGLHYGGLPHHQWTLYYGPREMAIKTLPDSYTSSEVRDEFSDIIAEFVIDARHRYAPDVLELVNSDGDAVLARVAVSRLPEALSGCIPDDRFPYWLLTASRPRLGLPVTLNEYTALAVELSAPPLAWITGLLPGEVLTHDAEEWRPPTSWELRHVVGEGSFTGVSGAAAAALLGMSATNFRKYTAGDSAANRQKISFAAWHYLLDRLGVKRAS


How the values were obtained:
AcrIF24 Y128K/Y217W = molecular target: T1, AcrIF24 Y128K/Y217W; assay: EMSA; EMSA-P: 10 mM HEPES pH 7.5, 1 mM MgCl2, 20 mM KCl, 1 mM TCEP, 5% glycerol, 30 min on ice; 10% native 0.5x TBE gel, SYBR Gold; Cascade EMSA buffer not in material; settings: protein: recombinant; label: none (SYBR Gold stain); blunt
AcrIF24 S45Y [1] = molecular target: T2, AcrIF24 S45Y; assay: EMSA; native PAGE; EMSA-P: 10 mM HEPES pH 7.5, 1 mM MgCl2, 20 mM KCl, 1 mM TCEP, 5% glycerol, 30 min on ice; 10% native 0.5x TBE gel, SYBR Gold; Cascade EMSA buffer not in material; settings: protein: recombinant; chain copies: 2; label: none (SYBR Gold stain); blunt
AcrIF24 K197Y [2] = molecular target: T3, AcrIF24 K197Y; assay: as above; settings: protein: recombinant; chain copies: 2; label: none (SYBR Gold stain); blunt
AcrIF24 R207W [3] = molecular target: T4, AcrIF24 R207W; assay: as above; settings: protein: recombinant; chain copies: 2; label: none (SYBR Gold stain); blunt
AcrIF24 R16W = molecular target: T5, AcrIF24 R16W; assay: EMSA; 1 uM protein; EMSA-P: 10 mM HEPES pH 7.5, 1 mM MgCl2, 20 mM KCl, 1 mM TCEP, 5% glycerol, 30 min on ice; 10% native 0.5x TBE gel, SYBR Gold; Cascade EMSA buffer not in material; settings: protein: recombinant; chain copies: 2; label: none (SYBR Gold stain); blunt
AcrIF24 S45Y [4] = molecular target: T2, AcrIF24 S45Y; assay: as above; settings: protein: recombinant; chain copies: 2; label: none (SYBR Gold stain); blunt
AcrIF24 K197Y [5] = molecular target: T3, AcrIF24 K197Y; assay: as above; settings: protein: recombinant; chain copies: 2; label: none (SYBR Gold stain); blunt
AcrIF24 R207W [6] = molecular target: T4, AcrIF24 R207W; assay: as above; settings: protein: recombinant; chain copies: 2; label: none (SYBR Gold stain); blunt

Binder | binding result (AcrIF24 Y128K/Y217W) | binding result (AcrIF24 S45Y [1]) | binding result (AcrIF24 K197Y [2]) | binding result (AcrIF24 R207W [3]) | binding result (AcrIF24 R16W) | binding result (AcrIF24 S45Y [4]) | binding result (AcrIF24 K197Y [5]) | binding result (AcrIF24 R207W [6])
IR-L (dsDNA) DNA 1: CAGAATATCATTGCATAGCTCGATTCGAGCTAATATAGTAATACCAACAGCGCGGCACACCGCCAGCACTGAACCT DNA 2: AGGTTCAGTGCTGGCGGTGTGCCGCGCTGTTGGTATTACTATATTAGCTCGAATCGAGCTATGCAATGATATTCTG | no binding | binds | no binding | no binding |  |  |  | 
IR-S (dsDNA) DNA 1: TAGCTCGATTCGAGCTA DNA 2: TAGCTCGAATCGAGCTA |  |  |  |  | binds | binds | no binding | no binding
